Measured values taken from publication PMC9524020 (2022).

Assays:
Assay in all cases: SPR
[1] = target: FcγRIIIa-158V, FcγRIIIa-G2FS(2-6) (human)
[2] = target: FcγRIIIa-158V, FcγRIIIa-Hybrid (human)
[3] = target: FcγRIIIa-158V, FcγRIIIa-HEK^WT (human)
[4] = target: FcγRIIIa-158V, FcγRIIIa-Monoantennae (human)
[5] = target: FcγRIIIa-158V, FcγRIIIa-CHO^WT (human)
[6] = target: FcγRIIIa-158V, FcγRIIIa-Oligomannose (human)
[7] = target: FcγRIIIa-158V, FcγRIIIa-Afucosylated (human)
Sequence of FcγRIIIa-158V, FcγRIIIa-Afucosylated (human) (chain, as listed by the source): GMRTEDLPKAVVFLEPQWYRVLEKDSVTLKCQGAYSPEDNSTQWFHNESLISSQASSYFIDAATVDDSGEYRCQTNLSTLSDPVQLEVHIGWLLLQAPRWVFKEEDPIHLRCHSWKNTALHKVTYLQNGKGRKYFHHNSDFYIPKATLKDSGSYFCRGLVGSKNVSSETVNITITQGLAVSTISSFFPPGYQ

Sequence of FcγRIIIa-158V, FcγRIIIa-Monoantennae (human) (chain, as listed by the source): as above
Sequence of FcγRIIIa-158V, FcγRIIIa-G2FS(2-6) (human) (chain, as listed by the source): as above
Sequence of FcγRIIIa-158V, FcγRIIIa-Oligomannose (human) (chain, as listed by the source): as above
Sequence of FcγRIIIa-158V, FcγRIIIa-HEK^WT (human) (chain, as listed by the source): as above
Sequence of FcγRIIIa-158V, FcγRIIIa-CHO^WT (human) (chain, as listed by the source): as above
Sequence of FcγRIIIa-158V, FcγRIIIa-Hybrid (human) (chain, as listed by the source): as above

B1: IgG1-CHO^WT (anti-rabies human IgG1 mAb SO57 from the CHO wildtype clone) (antibody)
chain 1: QVQLVQSGAEVKKPGSSVKVSCKASGGTFNRYTVNWVRQAPGQGLEWMGGIIPIFGTANYAQRFQGRLTITADESTSTAYMELSSLRSDDTAVYFCARENLDNSGTYYYFSGWFDPWGQGTLVTVSS
chain 2: QSALTQPRSVSGSPGQSVTISCTGTSSDIGGYNFVSWYQQHPGKAPKLMIYDATKRPSGVPDRFSGSKSGNTASLTISGLQAEDEADYYCCSYAGDYTPGVVFGGGTKLTVL
modifications: N-glycan at Asn297: dominant G0F glycans with small amounts of G1F
Work on B1 yielded a Kd [1] of 440 nM, a Kd [2] of 460 nM and a Kd [3] of 440 nM. It also gave a Kd [4] of 490 nM, a Kd [5] of 490 nM and a Kd [6] of 240 nM. For the same binder, the Kd [7] was 460 nM.
